Data set [1] deals with T1, hnRNP-K (GST fusion) (Homo sapiens, UniProt P61978 SEQ:1-463). Put plainly: competition; 100-fold excess fails to compete n1 binding. The note with it: tags: N-terminal GST fusion, expressed in E. coli XL-2 (construct from D. Levens). As to the method:
(§1) Binding reactions containing GST/hnRNP-K were performed in the absence (GST-K) or presence (+) of a 100 fold molar excess of unlabeled CD43 PyRo SS, the presence of Mut-11 (Mut) representing a mutant version of CD43 PyRo SS which fails to support PyRol binding Farokhzad et al., (2000) Nucleic Acids Research, 28:2256-2267) or the presence of an unrelated oligonucleotide (NS). The free probe and probe bound by the GST/hnRNP-K protein (GST:hnRNP-K) are arrowed.

Data set [2] concerns the target T1, hnRNP-K (GST fusion). Briefly: EMSA; 70 mM KCl, 5 mM NaCl, 20 mM Tris pH 7.5, poly(dI-dC), 4 C; competed by 100-fold unlabeled self. The settings on record: tags: N-terminal GST fusion, expressed in E. coli XL-2 (construct from D. Levens); label: 32P 5'. As for the experimental part:
as §1
A general note: Mobility shift assays separate free from complexed probe on a gel.

Data set [3] has as its target T1, hnRNP-K (GST fusion). Briefly: competition; unrelated competitor oligonucleotide; outcome not explicitly described in text. The settings on record: tags: N-terminal GST fusion, expressed in E. coli XL-2 (construct from D. Levens). As to the method: as §1

As for GGGCCCACTTCCTTCATATATG (ssDNA) [CD43 Mut-11], in the data set with hnRNP-K (GST fusion) [1], the binding result is “no binding”.

With GGGCCCACTTCCTTTCCCCTTG (ssDNA) [CD43 PyRo SS], the binding result in the data set with hnRNP-K (GST fusion) [2] is “binds”.

On to GAGTTAGCTCACTCATTAGG (ssDNA) [NS-SS], for which, in the data set with hnRNP-K (GST fusion) [3], the binding result is “no binding”.

Source of the values: patent publication US20060216231, “Methods for diagnosing and treating tumors and suppressing cd promoters” (published 2006).
